From patent publication US20250092426, “CAS ENDONUCLEASES AND RELATED METHODS” (Flagship Pioneering Innovations VII, LLC, published 2025)

Molecular target: T1, CasEnd-34 (synthetic construct)
T1 chain: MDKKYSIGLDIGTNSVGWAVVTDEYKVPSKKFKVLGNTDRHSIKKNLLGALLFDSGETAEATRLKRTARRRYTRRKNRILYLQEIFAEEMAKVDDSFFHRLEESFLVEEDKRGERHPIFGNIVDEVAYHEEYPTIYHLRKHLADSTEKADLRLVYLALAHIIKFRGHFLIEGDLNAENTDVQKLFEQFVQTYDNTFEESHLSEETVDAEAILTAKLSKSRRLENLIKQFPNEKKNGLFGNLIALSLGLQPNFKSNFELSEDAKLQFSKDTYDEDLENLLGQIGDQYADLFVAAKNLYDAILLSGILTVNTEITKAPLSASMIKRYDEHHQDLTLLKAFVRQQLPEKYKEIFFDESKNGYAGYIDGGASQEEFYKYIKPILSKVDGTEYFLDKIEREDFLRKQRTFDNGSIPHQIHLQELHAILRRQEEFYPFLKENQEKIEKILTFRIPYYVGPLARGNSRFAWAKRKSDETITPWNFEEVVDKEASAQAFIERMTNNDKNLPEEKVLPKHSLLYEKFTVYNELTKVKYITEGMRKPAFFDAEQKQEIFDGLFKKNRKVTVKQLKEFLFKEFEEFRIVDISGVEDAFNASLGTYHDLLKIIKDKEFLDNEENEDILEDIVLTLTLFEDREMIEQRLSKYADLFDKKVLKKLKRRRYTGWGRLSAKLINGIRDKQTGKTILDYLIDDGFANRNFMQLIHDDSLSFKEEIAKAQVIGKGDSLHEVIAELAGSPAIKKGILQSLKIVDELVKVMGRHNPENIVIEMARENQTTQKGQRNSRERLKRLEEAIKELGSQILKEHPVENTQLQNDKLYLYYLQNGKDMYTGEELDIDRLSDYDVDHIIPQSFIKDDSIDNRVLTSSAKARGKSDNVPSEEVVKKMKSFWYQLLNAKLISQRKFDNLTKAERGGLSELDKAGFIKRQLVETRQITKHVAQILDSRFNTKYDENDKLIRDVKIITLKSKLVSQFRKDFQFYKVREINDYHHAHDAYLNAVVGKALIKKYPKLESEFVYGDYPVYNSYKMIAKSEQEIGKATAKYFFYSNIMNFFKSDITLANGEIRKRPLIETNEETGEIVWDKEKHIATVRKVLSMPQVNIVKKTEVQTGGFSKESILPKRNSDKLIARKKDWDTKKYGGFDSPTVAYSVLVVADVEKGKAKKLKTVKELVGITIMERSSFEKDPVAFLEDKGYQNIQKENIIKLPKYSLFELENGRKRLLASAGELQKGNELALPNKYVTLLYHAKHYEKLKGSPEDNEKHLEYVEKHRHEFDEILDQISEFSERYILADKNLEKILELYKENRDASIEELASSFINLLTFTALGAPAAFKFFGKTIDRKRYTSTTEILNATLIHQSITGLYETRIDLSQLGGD
Assay: cell_activity; +++; HEK293T; PAM not stated
Outline: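 Editing activity was scored as the fraction of GFP+ cells on day 4 by flow cytometry. BFP-expressing HEK293T cells (250,000) received by nucleofection 200 ng plasmid for the RT-Cas fusion protein and 200 ng template RNA plasmid designed to convert BFP to GFP.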

B1: BFP-to-GFP template RNA ; BFP reporter protospacer (ssRNA ; dsDNA)
RNA: GCCGAAGCACUGCACGCCGUGUUUUAGAGCUAGAAAUAGCAAGUUAAAAUAAGGCUAGUCCGUUAUCAACUUGAAAAAGUGGCACCGAGUCGGUGCACCCUGACGUACGGCGUGCAGUGCUU
DNA 1: GCCGAAGCACTGCACGCCGT
DNA 2: ACGGCGTGCAGTGCTTCGGC
activity: ≥ 100 % of reference
